The record followed here is US20060287501A1 (Pieris, published 2006).

Substitutions are numbered along the chain they refer to.

For orientation: Kd means the free concentration of one partner at which half of the binding sites on the other are occupied at equilibrium, for simple one-to-one binding.

The target of assay [1] is T1, recombinant Nogo-A fragment NI-Fr2 (rat, UniProt Q9JK11 233-941, labelled with digoxigenin (molar ratio 5:1) in the colony screening assay).
T1 construct: Truncated rat Nogo-A with C-terminal Strep-tag, made in the E. coli periplasm; also called MI-Fr2; wild-type NI-Fr2
T1 sequence: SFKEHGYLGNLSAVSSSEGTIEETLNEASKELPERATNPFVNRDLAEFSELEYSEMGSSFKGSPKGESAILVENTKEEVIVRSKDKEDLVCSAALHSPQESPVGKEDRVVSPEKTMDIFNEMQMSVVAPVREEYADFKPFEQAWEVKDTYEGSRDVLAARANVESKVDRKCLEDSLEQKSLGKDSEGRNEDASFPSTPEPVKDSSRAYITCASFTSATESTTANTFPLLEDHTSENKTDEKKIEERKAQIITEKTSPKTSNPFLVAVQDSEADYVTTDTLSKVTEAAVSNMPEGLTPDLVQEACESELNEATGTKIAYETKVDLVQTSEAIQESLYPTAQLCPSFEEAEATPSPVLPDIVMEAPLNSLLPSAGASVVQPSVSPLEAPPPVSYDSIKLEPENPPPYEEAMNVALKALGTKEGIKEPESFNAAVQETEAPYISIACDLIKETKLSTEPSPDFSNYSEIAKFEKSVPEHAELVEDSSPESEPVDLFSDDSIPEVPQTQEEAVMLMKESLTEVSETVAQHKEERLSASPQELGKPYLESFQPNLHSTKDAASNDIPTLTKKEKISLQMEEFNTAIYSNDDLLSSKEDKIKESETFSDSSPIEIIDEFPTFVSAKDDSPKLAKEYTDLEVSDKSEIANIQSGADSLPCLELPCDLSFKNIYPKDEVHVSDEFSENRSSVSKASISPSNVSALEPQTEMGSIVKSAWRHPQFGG
As to the kind of experiment: ELISA, wells coated with NI-Fr2, bound Fab detected with anti-human Ckappa antibody-alkaline phosphatase, delta A405/delta t. As to the method:
Antigen-binding activity of the mutant Fab fragments was subsequently tested by ELISA using the recombinant NI-Fr2 for coating of the microtitre plate wells (FIG. 2).
ELISA was carried out in a 96 well microtitre plate (Becton Dickinson, Heidelberg, Germany) at ambient temperature with incubation steps of 1 h unless otherwise stated. Three washing steps with PBS/T were used after each incubation, and residual liquid was removed thoroughly. The wells were coated for 4 h with 50 μl of a solution of MI-Fr2 at concentrations between 180 and 200 μg/ml in PBS buffer and then blocked with 200 μl 3% (w/v) BSA, 0.5% (v/v) Tween 20 in PBS. After washing, 50 μl of the purified recombinant Fab fragment was applied at a dilution series in PBS/T. The wells were then incubated with 50 μl anti-human Cκ antibody conjugated with alkaline phosphatase (Sigma), diluted 1:1000 in PBS/T. Signals were finally developed in the presence of p-nitrophenyl phosphate (Voss and Skerra, (1997) Protein Eng., 10, 975-982). Enzymatic activity was measured at 25° C. as the change in absorbance at 405 nm per min with a SpectraMAX 250 instrument (Molecular Devices, Sunnyvale, Calif.). The data were corrected for background values determined in wells that were merely coated with BSA and fitted by non-linear least squares regression as described by Voss and Skerra, supra
(In general: An ELISA detects its analyte on a solid surface through an enzyme-linked reagent.)

The target of the next assay is T2, BSA (bovine, UniProt P02769 25-607).
T2 construct: Control antigen
T2 sequence (P02769 25-607 limits assumed): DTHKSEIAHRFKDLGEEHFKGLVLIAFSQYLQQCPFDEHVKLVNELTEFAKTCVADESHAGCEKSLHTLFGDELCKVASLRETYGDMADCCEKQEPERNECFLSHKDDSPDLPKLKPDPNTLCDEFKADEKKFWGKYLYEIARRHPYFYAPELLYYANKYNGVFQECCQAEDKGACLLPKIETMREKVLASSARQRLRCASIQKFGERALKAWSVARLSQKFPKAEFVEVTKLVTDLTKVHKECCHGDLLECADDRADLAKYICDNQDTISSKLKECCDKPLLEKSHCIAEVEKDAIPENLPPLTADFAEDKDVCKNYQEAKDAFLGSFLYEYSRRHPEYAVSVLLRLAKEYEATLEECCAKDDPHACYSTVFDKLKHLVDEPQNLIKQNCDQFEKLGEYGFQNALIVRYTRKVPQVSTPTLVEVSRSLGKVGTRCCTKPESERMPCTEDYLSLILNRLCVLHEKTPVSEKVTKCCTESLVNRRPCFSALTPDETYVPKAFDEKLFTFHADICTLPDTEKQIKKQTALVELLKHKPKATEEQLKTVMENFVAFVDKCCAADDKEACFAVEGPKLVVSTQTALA
As to the kind of experiment: ELISA; BSA as antigen.

In assay [2] the target is T3, recombinant Nogo-A fragment NI-Fr4 (rat, UniProt Q9JK11 233-941).
T3 construct: Truncated rat Nogo-A with N-terminal Strep-tag II and C-terminal His6
T3 sequence: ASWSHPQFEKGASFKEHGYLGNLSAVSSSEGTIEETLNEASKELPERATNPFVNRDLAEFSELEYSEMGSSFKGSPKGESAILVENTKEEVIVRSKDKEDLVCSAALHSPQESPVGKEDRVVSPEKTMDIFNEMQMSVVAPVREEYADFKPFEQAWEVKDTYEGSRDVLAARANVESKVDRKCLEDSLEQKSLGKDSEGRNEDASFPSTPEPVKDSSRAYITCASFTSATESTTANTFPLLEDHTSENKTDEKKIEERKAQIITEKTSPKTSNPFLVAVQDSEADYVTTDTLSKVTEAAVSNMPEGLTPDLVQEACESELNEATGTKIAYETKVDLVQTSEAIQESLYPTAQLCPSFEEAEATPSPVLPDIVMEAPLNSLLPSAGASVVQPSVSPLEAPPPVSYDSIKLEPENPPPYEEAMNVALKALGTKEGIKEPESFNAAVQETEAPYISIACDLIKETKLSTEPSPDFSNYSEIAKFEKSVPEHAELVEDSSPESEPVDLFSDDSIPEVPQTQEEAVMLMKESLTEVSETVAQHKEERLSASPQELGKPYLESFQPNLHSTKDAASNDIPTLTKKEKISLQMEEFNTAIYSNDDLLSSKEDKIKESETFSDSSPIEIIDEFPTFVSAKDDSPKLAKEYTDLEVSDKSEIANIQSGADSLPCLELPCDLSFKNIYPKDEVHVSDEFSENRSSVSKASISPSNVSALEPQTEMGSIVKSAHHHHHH
As to the kind of experiment: SPR (Biacore X); NI-Fr4 on Ni/NTA chip, equilibrium fit. As to the method: (§1) The thermodynamic affinity for the recombinant Nogo-A fragment NI-Fr4 was determined both for the II.1.8 mutant and for the wild-type IN-1 Fab fragment using the method of real time surface plasmon resonance (SPR) on a Biacore-X® system equipped with an Ni/NTA-derivatized sensor chip® (Biacore AB, Uppsala, Sweden). PBS containing 0.005% (v/v) surfactant P20 was used as continuous flow buffer as well as for dilution of proteins. Analysis was performed at 25° C. using a flow rate of 35 μl/min.
(§2) Then the Fab fragment (produced by means of the vector pASK107 and purified via the Strep-tag II; see Example 1)) was injected at a defined concentration (between 0.25 and 6.8 μM) for 2 minutes, followed by buffer flow for 4 minutes. The chip surface was regenerated using 70 μl 0.35 M EDTA, pH 8.0 in flow buffer prior to the next measurement. Each time-dependent binding isotherm of the Fab fragment was corrected for the background signal that was detected in the flow channel without NI-Fr4 using BIAevaluation software (Version 3.0). Resonance unit values for the bound Fab fragment at equilibrium for each applied concentration were then deduced and fitted (Voss and Skerra, supra) by non-linear least squares regression using an equation of the type y=a*x/(b+x). […]
In general terms: In SPR one partner is held on a chip, and binding of the other changes the refractive index at the surface.

In assay [3] the target is T3, recombinant Nogo-A fragment NI-Fr4. As to the kind of experiment: SPR (Biacore X); NI-Fr4 on Ni/NTA chip via His6, Fab (pASK107, Strep-tag II) at 0.25-6.8 µM, equilibrium fit. As for the experimental part:
as §1, §2

B1: I.2.6 Fab fragment (IN-1 mutant) (Fab, V domains shown)
VH: EVKLHESGPGLVRPGTSVKISCKASGYTFTNYWLGWVKQRPGHGLEWIGDIYPGGGYTNYNEKFKGKATLTADTSSSTAYMQLSSLTSEDSAVYFCARFYYGSSYWYFDVWGQGTTVTVSS
VL: DIELTQSPAIMAASVGETVTITCGASENIYGALNWYQRKQGKSPQLLIYGATNLADGMSSRFSGSGSGRQYSLKISSLHPDDVATYYCQNVLRVPCTFGAGTKLEIK
notes: Chimeric Fab, human IgG1/kappa constant domains; also called mutant I.2.6; original I.2.6 Fab fragment
For B1, the binding result in assay [1] is listed as “binds”; with BSA, “no binding”.

B2: II.1.8 Fab fragment (Fab, V domains shown)
VH: B1 VH
VL: B1 VL with V91I, L92N, C96V
notes: also called II.1.8 mutant; antibody fragment II.1.8
Take B2: the “fold improvement of KD over the wild-type IN-1 Fab fragment” value in assay [2] was determined as 8 fold. In addition, the Kd in assay [3] stood at 1040 nM.
